Results from patent US20130143299A1 (GENEFRONTIER, published 2013).

target: T1, human Erk2 (extracellular signal-regulated kinase 2), purchased from Sigma (human, UniProt P28482 1-360, limits assumed); test: ELISA, purified clone 500 ng/well on immobilised antigen, anti-FLAG-HRP detection
T1 construct: Biotinylated with EZ-Link NHS-PEO4-Biotin for selection and for SPR (SA sensor chip); immobilised directly on the plate for ELISA; also called recombinant Erk2 protein; Erk2 protein
T1 sequence (P28482 whole entry): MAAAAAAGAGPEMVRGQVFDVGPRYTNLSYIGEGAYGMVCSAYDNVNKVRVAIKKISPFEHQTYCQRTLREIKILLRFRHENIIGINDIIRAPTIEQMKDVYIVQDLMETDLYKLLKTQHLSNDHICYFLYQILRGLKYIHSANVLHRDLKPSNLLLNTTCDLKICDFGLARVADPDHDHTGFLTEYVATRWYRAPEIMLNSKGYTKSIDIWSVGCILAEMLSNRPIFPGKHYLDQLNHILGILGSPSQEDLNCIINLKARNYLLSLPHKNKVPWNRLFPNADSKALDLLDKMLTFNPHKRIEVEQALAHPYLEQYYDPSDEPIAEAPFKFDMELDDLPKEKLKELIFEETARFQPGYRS

Row | Binder | ELISA (S/N)
1 | Erk2-binding clone group N (RNF8-FHA domain-modified protein) (designed binder, Purified protein from E. coli; also called Erk2 clone N; clone N; not shown: N-terminal fusion partner from vector pET-MalStrep (MBP/Strep) and FLAG tag) GEPGFFVTGDRAGGRSWCLRRVGMSAGWLLLEDGCEVTVGWGGGVTYQLVSKGYLWQRRTNHCVLKQNPEGQWTIMDNKVLGGVWLNRARLEPLRVYSIHQGDYIQLGLRSLLLENAEYEYEVTEEDWETIYPCLSPKNDQMIEKN | 12.6
2 | Erk2-binding clone group B (RNF8-FHA domain-modified protein) (designed binder, Loop 4 ALKQSL; loops 1-3 as group A; also called Erk2 clone B; not shown: N-terminal fusion partner from vector pET-MalStrep (MBP/Strep) and FLAG tag) GEPGFFVTGDRAGGRSWCLRRVGMSAGWLLLEDGCEVTVGFGTGVTYQLVSKYLPSWFTYNHCVLKQNPEGQWTIMDNKSLTGVWLNRARLEPLRVYSIHQGDYIQLGALKQSLENAEYEYEVTEEDWETIYPCLSPKNDQMIEKN | 30
3 | Erk2-binding clone group A (RNF8-FHA domain-modified protein) (designed binder, Expressed from pET-MalStrep in E. coli; also called Erk2 clone A; not shown: N-terminal fusion partner from E. coli vector pET-MalStrep (MBP, purified on MBPTrap)) GEPGFFVTGDRAGGRSWCLRRVGMSAGWLLLEDGCEVTVGFGTGVTYQLVSKYLPSWFTYNHCVLKQNPEGQWTIMDNKSLTGVWLNRARLEPLRVYSIHQGDYIQLGGIWSDLENAEYEYEVTEEDWETIYPCLSPKNDQMIEKN | 30
4 | Erk2-binding clone group D (RNF8-FHA domain-modified protein) (designed binder, Loop 4 SHKWWV; loops 1-3 as group A; also called Erk2 clone D; not shown: N-terminal fusion partner from vector pET-MalStrep (MBP/Strep) and FLAG tag) GEPGFFVTGDRAGGRSWCLRRVGMSAGWLLLEDGCEVTVGFGTGVTYQLVSKYLPSWFTYNHCVLKQNPEGQWTIMDNKSLTGVWLNRARLEPLRVYSIHQGDYIQLGSHKWWVENAEYEYEVTEEDWETIYPCLSPKNDQMIEKN | 13.6
5 | Erk2-binding clone group C (RNF8-FHA domain-modified protein) (designed binder, Loop 4 AMTTSY; loops 1-3 as group A; also called Erk2 clone C; not shown: N-terminal fusion partner from vector pET-MalStrep (MBP/Strep) and FLAG tag) GEPGFFVTGDRAGGRSWCLRRVGMSAGWLLLEDGCEVTVGFGTGVTYQLVSKYLPSWFTYNHCVLKQNPEGQWTIMDNKSLTGVWLNRARLEPLRVYSIHQGDYIQLGAMTTSYENAEYEYEVTEEDWETIYPCLSPKNDQMIEKN | 12

target: T2, Escherichia coli thioredoxin, purchased from Sigma (Escherichia coli, UniProt P0AA25 2-109 = thioredoxin); test: as above
T2 construct: Immobilised on the plate for ELISA; also called Trx
T2 sequence (P0AA25 2-109 limits assumed): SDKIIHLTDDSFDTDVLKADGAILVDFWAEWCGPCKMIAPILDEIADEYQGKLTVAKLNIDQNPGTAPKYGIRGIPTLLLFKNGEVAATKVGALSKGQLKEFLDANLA

Row | Binder | ELISA (S/N)
6 | Trx-binding clone group A (RNF8-FHA domain-modified protein) (designed binder, also called Trx clone A; not shown: N-terminal fusion partner from vector pET-MalStrep (MBP/Strep) and FLAG tag) GEPGFFVTGDRAGGRSWCLRRVGMSAGWLLLEDGCEVTVGFVPGVTYQLVSKVLFAEKNANHCVLKQNPEGQWTIMDNKVWNGVWLNRARLEPLRVYSIHQGDYIQLGQVSPLGENAEYEYEVTEEDWETIYPCLSPKNDQMIEKN | 30.5
7 | Trx-binding clone group D (RNF8-FHA domain-modified protein) (designed binder, Loop 4 RGCLGL; loops 1-3 as Trx group A; not shown: N-terminal fusion partner from vector pET-MalStrep (MBP/Strep) and FLAG tag) GEPGFFVTGDRAGGRSWCLRRVGMSAGWLLLEDGCEVTVGFVPGVTYQLVSKVLFAEKNANHCVLKQNPEGQWTIMDNKVWNGVWLNRARLEPLRVYSIHQGDYIQLGRGCLGLENAEYEYEVTEEDWETIYPCLSPKNDQMIEKN | 4.7
8 | Trx-binding clone group C (RNF8-FHA domain-modified protein) (designed binder, Loop 4 GVFRKG; loops 1-3 as Trx group A; not shown: N-terminal fusion partner from vector pET-MalStrep (MBP/Strep) and FLAG tag) GEPGFFVTGDRAGGRSWCLRRVGMSAGWLLLEDGCEVTVGFVPGVTYQLVSKVLFAEKNANHCVLKQNPEGQWTIMDNKVWNGVWLNRARLEPLRVYSIHQGDYIQLGGVFRKGENAEYEYEVTEEDWETIYPCLSPKNDQMIEKN | 4.4
9 | Trx-binding clone group G (RNF8-FHA domain-modified protein) (designed binder, not shown: N-terminal fusion partner from vector pET-MalStrep (MBP/Strep) and FLAG tag) GEPGFFVTGDRAGGRSWCLRRVGMSAGWLLLEDGCEVTVGFLPGVTYQLVSKPMRREKNMNHCVLKQNPEGQWTIMDNKVRIGVWLNRARLEPLRVYSIHQGDYIQLGQVSPLGENAEYEYEVTEEDWETIYPCLSPKNDQMIEKN | 22.2
10 | Trx-binding clone group H (RNF8-FHA domain-modified protein) (designed binder, not shown: N-terminal fusion partner from vector pET-MalStrep (MBP/Strep) and FLAG tag) GEPGFFVTGDRAGGRSWCLRRVGMSAGWLLLEDGCEVTVGSDWGVTYQLVSKRWLGNVVFNHCVLKQNPEGQWTIMDNKAGHGVWLNRARLEPLRVYSIHQGDYIQLGEPSSLHENAEYEYEVTEEDWETIYPCLSPKNDQMIEKN | 5.7

target: T3, endogenous Erk1 of HEK293T cells (UniProt P27361 2-379); test: His-tag (TALON resin) pull-down from transfected HEK293T cells, Western blot with anti-ERK antibody
T3 construct: Endogenous intracellular protein, not a recombinant construct; also called Erk1/2
T3 sequence (P27361 2-379 limits assumed): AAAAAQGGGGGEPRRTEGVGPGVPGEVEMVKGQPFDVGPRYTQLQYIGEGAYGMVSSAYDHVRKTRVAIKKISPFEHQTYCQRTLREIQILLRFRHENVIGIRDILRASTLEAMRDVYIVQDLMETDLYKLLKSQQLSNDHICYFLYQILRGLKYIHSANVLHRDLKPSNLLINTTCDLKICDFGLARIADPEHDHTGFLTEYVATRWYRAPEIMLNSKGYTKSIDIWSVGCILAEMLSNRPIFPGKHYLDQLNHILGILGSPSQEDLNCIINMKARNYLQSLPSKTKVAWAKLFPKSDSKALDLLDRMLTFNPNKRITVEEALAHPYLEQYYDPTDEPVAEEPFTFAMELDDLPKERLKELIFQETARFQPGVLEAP

Row | Binder | binding result
11 | Trx clone A expressed from pcDNA3.1-RNF8-V5/His in HEK293T cells (designed binder, Control clone in the pull-down of endogenous Erk1/2; not shown: C-terminal V5 and His tags of vector pcDNA3.1-V5/His) GEPGFFVTGDRAGGRSWCLRRVGMSAGWLLLEDGCEVTVGFVPGVTYQLVSKVLFAEKNANHCVLKQNPEGQWTIMDNKVWNGVWLNRARLEPLRVYSIHQGDYIQLGQVSPLGENAEYEYEVTEEDWETIYPCLSPKNDQMIEKN | no binding

target: T4, endogenous Erk2 of HEK293T cells (UniProt P28482 2-360); test: as above
T4 construct: Endogenous intracellular protein, not a recombinant construct; also called Erk1/2
T4 sequence (P28482 2-360 limits assumed): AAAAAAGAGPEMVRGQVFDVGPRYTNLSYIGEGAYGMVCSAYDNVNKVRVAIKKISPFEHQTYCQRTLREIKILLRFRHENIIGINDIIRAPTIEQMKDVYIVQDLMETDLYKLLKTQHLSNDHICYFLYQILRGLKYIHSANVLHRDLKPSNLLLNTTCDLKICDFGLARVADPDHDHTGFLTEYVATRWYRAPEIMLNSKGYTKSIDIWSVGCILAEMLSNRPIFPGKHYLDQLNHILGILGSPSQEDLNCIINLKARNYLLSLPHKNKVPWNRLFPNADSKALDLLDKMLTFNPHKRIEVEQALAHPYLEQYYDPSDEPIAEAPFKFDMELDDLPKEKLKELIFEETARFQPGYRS

Row | Binder | binding result
12 | Trx clone A expressed from pcDNA3.1-RNF8-V5/His in HEK293T cells (designed binder, Control clone in the pull-down of endogenous Erk1/2; not shown: C-terminal V5 and His tags of vector pcDNA3.1-V5/His) GEPGFFVTGDRAGGRSWCLRRVGMSAGWLLLEDGCEVTVGFVPGVTYQLVSKVLFAEKNANHCVLKQNPEGQWTIMDNKVWNGVWLNRARLEPLRVYSIHQGDYIQLGQVSPLGENAEYEYEVTEEDWETIYPCLSPKNDQMIEKN | no binding

target: T1, human Erk2 (extracellular …); test: primary screening ELISA, E. coli extract on immobilised antigen, anti-FLAG-HRP

Row | Binder | binding result
13 | Erk2-binding clone group M (RNF8-FHA domain-modified protein) (designed binder, Only tested in the primary screening ELISA (E. coli extract); not shown: N-terminal fusion partner from vector pET-MalStrep (MBP/Strep) and FLAG tag) GEPGFFVTGDRAGGRSWCLRRVGMSAGWLLLEDGCEVTVGFGTGVTYQLVSKYLPSWFTYNHCVLKQNPEGQWTIMDNKSLTGVWLNRARLEPLRVYSIHQGDYIQLGALRCRLENAEYEYEVTEEDWETIYPCLSPKNDQMIEKN | binds
14 | Erk2-binding clone group L (RNF8-FHA domain-modified protein) (designed binder, Only tested in the primary screening ELISA (E. coli extract); not shown: N-terminal fusion partner from vector pET-MalStrep (MBP/Strep) and FLAG tag) GEPGFFVTGDRAGGRSWCLRRVGMSAGWLLLEDGCEVTVGFGTGVTYQLVSKYLPSWFTYNHCVLKQNPEGQWTIMDNKSLTGVWLNRARLEPLRVYSIHQGDYIQLGAMFSDVENAEYEYEVTEEDWETIYPCLSPKNDQMIEKN | binds
15 | Erk2-binding clone group F (RNF8-FHA domain-modified protein) (designed binder, Only tested in the primary screening ELISA (E. coli extract); not shown: N-terminal fusion partner from vector pET-MalStrep (MBP/Strep) and FLAG tag) GEPGFFVTGDRAGGRSWCLRRVGMSAGWLLLEDGCEVTVGFGTGVTYQLVSKYLPSWFTYNHCVLKQNPEGQWTIMDNKSLTGVWLNRARLEPLRVYSIHQGDYIQLGSMRHMLENAEYEYEVTEEDWETIYPCLSPKNDQMIEKN | binds
16 | Erk2-binding clone group I (RNF8-FHA domain-modified protein) (designed binder, Only tested in the primary screening ELISA (E. coli extract); not shown: N-terminal fusion partner from vector pET-MalStrep (MBP/Strep) and FLAG tag) GEPGFFVTGDRAGGRSWCLRRVGMSAGWLLLEDGCEVTVGFGTGVTYQLVSKYLPSWFTYNHCVLKQNPEGQWTIMDNKSLTGVWLNRARLEPLRVYSIHQGDYIQLGSLAANLENAEYEYEVTEEDWETIYPCLSPKNDQMIEKN | binds
17 | Erk2-binding clone group K (RNF8-FHA domain-modified protein) (designed binder, Only tested in the primary screening ELISA (E. coli extract); not shown: N-terminal fusion partner from vector pET-MalStrep (MBP/Strep) and FLAG tag) GEPGFFVTGDRAGGRSWCLRRVGMSAGWLLLEDGCEVTVGFGTGVTYQLVSKYLPSWFTYNHCVLKQNPEGQWTIMDNKSLTGVWLNRARLEPLRVYSIHQGDYIQLGEDRFGLENAEYEYEVTEEDWETIYPCLSPKNDQMIEKN | binds
18 | Erk2-binding clone group E (RNF8-FHA domain-modified protein) (designed binder, Only tested in the primary screening ELISA (E. coli extract); not shown: N-terminal fusion partner from vector pET-MalStrep (MBP/Strep) and FLAG tag) GEPGFFVTGDRAGGRSWCLRRVGMSAGWLLLEDGCEVTVGFGTGVTYQLVSKYLPSWFTYNHCVLKQNPEGQWTIMDNKSLTGVWLNRARLEPLRVYSIHQGDYIQLGETGLEWENAEYEYEVTEEDWETIYPCLSPKNDQMIEKN | binds
19 | Erk2-binding clone group G (RNF8-FHA domain-modified protein) (designed binder, Only tested in the primary screening ELISA (E. coli extract); not shown: N-terminal fusion partner from vector pET-MalStrep (MBP/Strep) and FLAG tag) GEPGFFVTGDRAGGRSWCLRRVGMSAGWLLLEDGCEVTVGFGTGVTYQLVSKYLPSWFTYNHCVLKQNPEGQWTIMDNKSLTGVWLNRARLEPLRVYSIHQGDYIQLGSLPGLAENAEYEYEVTEEDWETIYPCLSPKNDQMIEKN | binds
20 | Erk2-binding clone group H (RNF8-FHA domain-modified protein) (designed binder, Only tested in the primary screening ELISA (E. coli extract); not shown: N-terminal fusion partner from vector pET-MalStrep (MBP/Strep) and FLAG tag) GEPGFFVTGDRAGGRSWCLRRVGMSAGWLLLEDGCEVTVGFGTGVTYQLVSKYLPSWFTYNHCVLKQNPEGQWTIMDNKSLTGVWLNRARLEPLRVYSIHQGDYIQLGLVAYGAENAEYEYEVTEEDWETIYPCLSPKNDQMIEKN | binds

target: T1, human Erk2 (extracellular …); test: Immunoprecipitation on anti-FLAG M2 agarose of recombinant Erk2 added to HEK293T cell lysate; SDS-PAGE (CBB staining) and Western blot with anti-ERK antibody

Row | Binder | binding result
21 | Trx-binding clone group A (RNF8-FHA domain-modified protein) (designed binder, also called Trx clone A; not shown: N-terminal fusion partner from vector pET-MalStrep (MBP/Strep) and FLAG tag) GEPGFFVTGDRAGGRSWCLRRVGMSAGWLLLEDGCEVTVGFVPGVTYQLVSKVLFAEKNANHCVLKQNPEGQWTIMDNKVWNGVWLNRARLEPLRVYSIHQGDYIQLGQVSPLGENAEYEYEVTEEDWETIYPCLSPKNDQMIEKN | no binding

target: T1, human Erk2 (extracellular …); test: SPR (BIACORE 3000), biotinylated Erk2 on SA sensor chip

Row | Binder | Kd [nM]
22 | Erk2-binding clone group N (RNF8-FHA domain-modified protein) (designed binder, Purified protein from E. coli; also called Erk2 clone N; clone N; not shown: N-terminal fusion partner from vector pET-MalStrep (MBP/Strep) and FLAG tag) GEPGFFVTGDRAGGRSWCLRRVGMSAGWLLLEDGCEVTVGWGGGVTYQLVSKGYLWQRRTNHCVLKQNPEGQWTIMDNKVLGGVWLNRARLEPLRVYSIHQGDYIQLGLRSLLLENAEYEYEVTEEDWETIYPCLSPKNDQMIEKN | 30
